Here are results for 1 molecule from paper PMC6895282.

The data set concerns the target TM52 (TetR-MphR hybrid regulator) (synthetic chimera of TetR and MphR; …, UniProt P04483 1-52+Q9EVJ6:56-194, internal_change). The data set is described as follows: EMSA. (In EMSA bound probe runs differently from free probe, usually more slowly.)

B1: TM52 operator fragment (hybrid tet operator, 2-bp spacer) (dsDNA)
DNA 1: GCGGTGATACTCCCTATCAGTTGATAGAGAGAGCACATCA
DNA 2: TGATGTGCTCTCTCTATCAACTGATAGGGAGTATCACCGC
Take B1: the binding result is listed as “binds”.
